Measurements from article PMC13169712, “Structural determinants of peanut-induced anaphylaxis” (The Journal of allergy and clinical immunology, 2025).

How the values were obtained:
Settings in all cases: both partners purified
[1] = molecular target: T1, rAra h 2 with the DPYSPS-containing loop deleted (Arachis hypogaea, Ara h 2.01 background, UniProt Q6PSU2;PDB, point mutant); assay: SPR; Carterra LSA; antibodies noncovalently bound to PAGHC30M (Protein A/G) sensor chips; analyte at 0.16, 0.8, 4, 20, 100 and 500 nM in HBS-TE, 0.05% BSA; 5 min association, 15 min dissociation
T1 construct: also called rAra h 2_loopdel; rArah2_loopdel

recombinant Ara h 6 = molecular target: T2, recombinant Ara h 6 (Arachis hypogaea, UniProt Q647G9); assay: as above
T2 construct: Ara h 6, Arachis hypogaea; May be the same construct as Ara h 6c; also called rAra h 6; rArah6; source: recombinant

recombinant Ara h 2.02 [2] = molecular target: T3, recombinant Ara h 2.02 (Arachis hypogaea, Ara h 2.02, UniProt Q6PSU2, strain); assay: as above
T3 construct: also called rArah2.02; source: recombinant

recombinant Ara h 2.01 = molecular target: T4, recombinant Ara h 2.01 (Arachis hypogaea, Ara h 2.01, UniProt Q6PSU2;PDB, strain); assay: SPR; Carterra LSA; antibody as ligand, allergen or peptide as analyte; how the antibody was held for these pairs is not told
T4 construct: also called rArah2.01; source: HEK cell-produced, recombinant

recombinant Ara h 2.02 [3] = molecular target: T3, recombinant Ara h 2.02; assay: as above

| Kd [1] [pM] | koff [1] [s⁻¹] | kon [1] [M⁻¹ s⁻¹] | Kd (recombinant Ara h 6) [pM] | koff (recombinant Ara h 6) [s⁻¹] | kon (recombinant Ara h 6) [M⁻¹ s⁻¹] | Kd (recombinant Ara h 2.02 [2]) [pM] | koff (recombinant Ara h 2.02 [2]) [s⁻¹] | kon (recombinant Ara h 2.02 [2]) [M⁻¹ s⁻¹] | Kd (recombinant Ara h 2.01) [pM] | koff (recombinant Ara h 2.01) [s⁻¹] | kon (recombinant Ara h 2.01) [M⁻¹ s⁻¹] | Kd (recombinant Ara h 2.02 [3]) [pM] | koff (recombinant Ara h 2.02 [3]) [s⁻¹] | kon (recombinant Ara h 2.02 [3]) [M⁻¹ s⁻¹] | Binder | binding result (recombinant Ara h 6) |
| --- | --- | --- | --- | --- | --- | --- | --- | --- | --- | --- | --- | --- | --- | --- | --- | --- |
| 17 | 3.69e-05 | 2.22e+06 | 36 | 8.57e-05 | 2.39e+06 | 36 | 3.82e-05 | 1.35e+06 | 65 | 5.63e-05 | 872000 | – | – | – | 16A8 human IgE mAb (antibody, V domains shown, variable region as in the heavy chain of m1; human IgE heavy chain constant region; as the light chain of m1; In the SPR some pairs used antibody captured on a Protein A/G chip; also called 16A8 antibody) VH: QVQLVQSGPDVRKPGATVKVSCQTSGYRFTDYEMNWVRQAPGQGLEWIGLINPHSGDTAYAQKFQGRVTMTSDTSDSTVYLELSGLTPDDTAVYYCARSQGTFEVYYFVSWGQGSLVTVSS VL: SYVLTQPPSMSVAPGTTASIPCGANNIAKKRVHWYRQKPGQAPVVVVSDDEDRSSVIPDRFSGSKSGDTATLTISRVEAGDEGDYYCQVWDSKTDHVVFGGGTKVTVL | – |
| – | – | – | – | – | – | – | – | – | 30000 | 0.000459 | 15500 | 3500 | 0.000474 | 165000 | 38B7 human IgE mAb (antibody, V domains shown, variable region as in the heavy chain of m5; human IgE heavy chain constant region; as the light chain of m5; In the SPR some pairs used antibody captured on a Protein A/G chip; also called IgE mAb 38B7; 38B7 IgE) VH: QVQLVESGGGVVQPGRSLRLSCVGSGFTFRRDAKYWVRQAPGKGLEWVAAISHDGGEEDYAESVKGRFTISRDNSRETVYLEMNSLRPEDTAVYYCATTRSGWYFDYWGQGALVTVSS VL: EIVLTQSPATLSLSPGARATLSCRASQSVDTYLAWYQQRRGQSPRLLIYDASKRATGIPARFSGSGSGTDFTLTISSLEPEDFAVYYCQQRNNWRTWTFGQGTKVEIN | no binding (tested: 500 nM (highest analyte concentration)) |
